Results: patent publication US20130302250A1 (published 2013)
Changes are numbered by the printed parent chain.

B1: huE06 v1.1 (VNAR)
VNAR: TRVDQSPSSLSASVGDRVTITCVLTDTSYPLYSTYWYQQKPGSSNKEQISISGRYSESVNKGTKSFTLTISSLQPEDFATYYCRAMGTNIWTGDGAGTKVEIKH
notes: Humanized VNAR; also called humanized E06 variant 1.1
B2: huE06 v1.10 (VNAR)
VNAR: B1 VNAR with Q38R, Q39K, K40N
notes: Humanized VNAR; also called hE06v1.10
B3: E06 (VNAR)
VNAR: TRVDQTPRTATRETGESLTINCVLTDTSYPLYSTYWYRKNPGSSNKEQISISGRYVESVNKGTKSFSLRIKDLTVADSATYICRAMGTNIWTGDGAGTVLTVNA
notes: Shark (Squalus acanthias) VNAR single domain, type IV; tested as monomeric 6xHis-tagged protein; also called E06-AAA-6xHis; VNAR clone E06

target: T1, human serum albumin (human, UniProt P02768 25-609); experiment: SPR (BIAcore), pH 6.0
T1 construct: also called HSA; HAS

Point of comparison: B1, “% Surface Active” value 29%. Against it:
- B2 — higher, 39.3%
- B3 — higher, 49.6%

target: T2, rat serum albumin (rat, UniProt P02770 25-608); experiment: SPR (BIAcore), pH 6.0
T2 construct: also called RSA; rat albumin
T2 sequence (P02770 25-608 limits assumed): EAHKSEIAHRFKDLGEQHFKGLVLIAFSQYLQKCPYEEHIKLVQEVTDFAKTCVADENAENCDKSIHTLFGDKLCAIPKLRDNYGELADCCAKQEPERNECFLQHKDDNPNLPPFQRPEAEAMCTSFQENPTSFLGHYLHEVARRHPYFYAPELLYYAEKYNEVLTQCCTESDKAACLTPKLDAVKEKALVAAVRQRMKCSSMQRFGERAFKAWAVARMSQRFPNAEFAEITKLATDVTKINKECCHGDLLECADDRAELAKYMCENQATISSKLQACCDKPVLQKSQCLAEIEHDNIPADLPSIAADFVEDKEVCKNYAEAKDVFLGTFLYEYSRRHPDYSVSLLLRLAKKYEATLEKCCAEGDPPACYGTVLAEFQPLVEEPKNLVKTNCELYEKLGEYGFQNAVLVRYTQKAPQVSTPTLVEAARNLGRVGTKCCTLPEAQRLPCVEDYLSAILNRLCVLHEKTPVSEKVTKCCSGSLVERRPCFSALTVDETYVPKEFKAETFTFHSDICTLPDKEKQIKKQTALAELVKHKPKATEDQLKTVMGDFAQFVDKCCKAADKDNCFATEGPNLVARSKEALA

Point of comparison: B1, “% Surface Active” value 17.4%. Against it:
- B2 — higher, 27.4%
- B3 — higher, 39.5%

target: T3, mouse serum albumin (mouse, UniProt P07724 25-608); experiment: SPR (BIAcore), pH 6.0
T3 construct: also called MSA; mouse albumin
T3 sequence (P07724 25-608 limits assumed): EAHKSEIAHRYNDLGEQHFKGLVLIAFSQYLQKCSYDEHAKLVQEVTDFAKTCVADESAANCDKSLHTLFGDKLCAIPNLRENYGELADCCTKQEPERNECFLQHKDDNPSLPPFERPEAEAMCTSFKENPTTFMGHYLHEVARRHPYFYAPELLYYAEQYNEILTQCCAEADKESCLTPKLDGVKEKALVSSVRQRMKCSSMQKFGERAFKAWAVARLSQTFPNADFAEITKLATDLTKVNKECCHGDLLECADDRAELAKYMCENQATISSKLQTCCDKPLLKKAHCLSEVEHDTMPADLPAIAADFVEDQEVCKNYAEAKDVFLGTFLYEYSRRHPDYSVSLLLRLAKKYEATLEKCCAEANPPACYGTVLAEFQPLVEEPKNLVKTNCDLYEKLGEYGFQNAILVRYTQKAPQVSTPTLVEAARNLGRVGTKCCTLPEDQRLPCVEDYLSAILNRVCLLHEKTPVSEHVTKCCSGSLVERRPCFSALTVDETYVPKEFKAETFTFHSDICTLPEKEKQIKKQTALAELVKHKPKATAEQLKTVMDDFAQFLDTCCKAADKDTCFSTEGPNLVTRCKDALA

Point of comparison: B1, “% Surface Active” value 16.3%. Against it:
- B2 — higher, 24.5%
- B3 — higher, 34.2%

target: T1, human serum albumin; experiment: SPR (BIAcore), pH 7.4

Point of comparison: B1, “% Surface Active” value 77.8%. Against it:
- B2 — higher, 79.8%
- B3 — higher, 85.3%

target: T2, rat serum albumin; experiment: SPR (BIAcore), pH 7.4

Point of comparison: B1, “% Surface Active” value 72.9%. Against it:
- B2 — higher, 79.3%
- B3 — higher, 88.4%

target: T3, mouse serum albumin; experiment: SPR (BIAcore), pH 7.4

Point of comparison: B1, “% Surface Active” value 78.2%. Against it:
- B2 — the same, 78.2%
- B3 — higher, 85.2%
